Data from PMC8463545, “The predatory soil bacterium Lysobacter reprograms quorum sensing system to regulate antifungal antibiotic production in a cyclic-di-GMP-independent manner” (Communications Biology, 2021).

T1: RpfG-MBP (Lysobacter enzymogenes)
T1 chain: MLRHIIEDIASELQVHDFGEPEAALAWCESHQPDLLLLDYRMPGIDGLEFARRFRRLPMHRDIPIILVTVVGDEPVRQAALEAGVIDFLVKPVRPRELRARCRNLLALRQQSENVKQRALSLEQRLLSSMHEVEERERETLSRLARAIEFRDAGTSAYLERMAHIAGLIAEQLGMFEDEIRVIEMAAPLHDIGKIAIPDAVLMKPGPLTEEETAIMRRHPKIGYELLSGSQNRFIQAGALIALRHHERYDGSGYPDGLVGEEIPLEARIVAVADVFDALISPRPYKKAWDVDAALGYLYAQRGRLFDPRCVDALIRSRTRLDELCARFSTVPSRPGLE

B1: HtsH3C-Myc-His (domain or fragment)
chain: not shown
modifications: Phosphorylated as purified (CIAP-sensitive). Primers give (M)AKTRFL... to ...ARRGEG (C-terminus). Positions are inferred from the candidate's His-kinase domain start. Assignment of this entry to …
B2: HtsH2C-HA-His (domain or fragment)
chain: not shown
modifications: Phosphorylated as purified (CIAP-sensitive). Primers give (M)AKTRFL... to ...DAADAP (C-terminus). The candidate lists no features, so the start is estimated from the paralogues' fragment lengths and …
B3: HtsH1C-Flag-His (domain or fragment)
chain: not shown
modifications: Phosphorylated as purified (CIAP-sensitive). Limits from the expression primers: (M)AKTRFL... to ...LFEREA, just before the His-kinase domain to the C-terminus. The start codon Met and Flag/His tags …

Assays:
Conditions in all cases: both partners purified
[1] = molecular target: T1, RpfG-MBP; experiment: SPR; RpfG-MBP on the sensor, HtsH cytoplasmic fragments bound to it; conditions not given
[2] = molecular target: HtsH3C-Myc-His (Lysobacter enzymogenes); experiment: SPR; HtsH cytoplasmic fragments against each other (Supplementary Fig. 5); who was immobilised and conditions not told
[3] = molecular target: HtsH2C-HA-His (Lysobacter enzymogenes); experiment: as above

Row | Binder | Kd [1] [nM] | Kd [2] [nM] | Kd [3] [nM]
1 | B1 | 168 | – | –
2 | B2 | 300 | 178 | –
3 | B3 | 66.8 | 160 | 96.2
